Assay results taken from EP0912608B1.

Target: Fibronectin from human plasma (human) (UniProt P02751)
Assay: cell-based or functional assay

Sequence of UniProt P02751 (P02751 other isoform, or with tags, fused parts or gaps limits assumed): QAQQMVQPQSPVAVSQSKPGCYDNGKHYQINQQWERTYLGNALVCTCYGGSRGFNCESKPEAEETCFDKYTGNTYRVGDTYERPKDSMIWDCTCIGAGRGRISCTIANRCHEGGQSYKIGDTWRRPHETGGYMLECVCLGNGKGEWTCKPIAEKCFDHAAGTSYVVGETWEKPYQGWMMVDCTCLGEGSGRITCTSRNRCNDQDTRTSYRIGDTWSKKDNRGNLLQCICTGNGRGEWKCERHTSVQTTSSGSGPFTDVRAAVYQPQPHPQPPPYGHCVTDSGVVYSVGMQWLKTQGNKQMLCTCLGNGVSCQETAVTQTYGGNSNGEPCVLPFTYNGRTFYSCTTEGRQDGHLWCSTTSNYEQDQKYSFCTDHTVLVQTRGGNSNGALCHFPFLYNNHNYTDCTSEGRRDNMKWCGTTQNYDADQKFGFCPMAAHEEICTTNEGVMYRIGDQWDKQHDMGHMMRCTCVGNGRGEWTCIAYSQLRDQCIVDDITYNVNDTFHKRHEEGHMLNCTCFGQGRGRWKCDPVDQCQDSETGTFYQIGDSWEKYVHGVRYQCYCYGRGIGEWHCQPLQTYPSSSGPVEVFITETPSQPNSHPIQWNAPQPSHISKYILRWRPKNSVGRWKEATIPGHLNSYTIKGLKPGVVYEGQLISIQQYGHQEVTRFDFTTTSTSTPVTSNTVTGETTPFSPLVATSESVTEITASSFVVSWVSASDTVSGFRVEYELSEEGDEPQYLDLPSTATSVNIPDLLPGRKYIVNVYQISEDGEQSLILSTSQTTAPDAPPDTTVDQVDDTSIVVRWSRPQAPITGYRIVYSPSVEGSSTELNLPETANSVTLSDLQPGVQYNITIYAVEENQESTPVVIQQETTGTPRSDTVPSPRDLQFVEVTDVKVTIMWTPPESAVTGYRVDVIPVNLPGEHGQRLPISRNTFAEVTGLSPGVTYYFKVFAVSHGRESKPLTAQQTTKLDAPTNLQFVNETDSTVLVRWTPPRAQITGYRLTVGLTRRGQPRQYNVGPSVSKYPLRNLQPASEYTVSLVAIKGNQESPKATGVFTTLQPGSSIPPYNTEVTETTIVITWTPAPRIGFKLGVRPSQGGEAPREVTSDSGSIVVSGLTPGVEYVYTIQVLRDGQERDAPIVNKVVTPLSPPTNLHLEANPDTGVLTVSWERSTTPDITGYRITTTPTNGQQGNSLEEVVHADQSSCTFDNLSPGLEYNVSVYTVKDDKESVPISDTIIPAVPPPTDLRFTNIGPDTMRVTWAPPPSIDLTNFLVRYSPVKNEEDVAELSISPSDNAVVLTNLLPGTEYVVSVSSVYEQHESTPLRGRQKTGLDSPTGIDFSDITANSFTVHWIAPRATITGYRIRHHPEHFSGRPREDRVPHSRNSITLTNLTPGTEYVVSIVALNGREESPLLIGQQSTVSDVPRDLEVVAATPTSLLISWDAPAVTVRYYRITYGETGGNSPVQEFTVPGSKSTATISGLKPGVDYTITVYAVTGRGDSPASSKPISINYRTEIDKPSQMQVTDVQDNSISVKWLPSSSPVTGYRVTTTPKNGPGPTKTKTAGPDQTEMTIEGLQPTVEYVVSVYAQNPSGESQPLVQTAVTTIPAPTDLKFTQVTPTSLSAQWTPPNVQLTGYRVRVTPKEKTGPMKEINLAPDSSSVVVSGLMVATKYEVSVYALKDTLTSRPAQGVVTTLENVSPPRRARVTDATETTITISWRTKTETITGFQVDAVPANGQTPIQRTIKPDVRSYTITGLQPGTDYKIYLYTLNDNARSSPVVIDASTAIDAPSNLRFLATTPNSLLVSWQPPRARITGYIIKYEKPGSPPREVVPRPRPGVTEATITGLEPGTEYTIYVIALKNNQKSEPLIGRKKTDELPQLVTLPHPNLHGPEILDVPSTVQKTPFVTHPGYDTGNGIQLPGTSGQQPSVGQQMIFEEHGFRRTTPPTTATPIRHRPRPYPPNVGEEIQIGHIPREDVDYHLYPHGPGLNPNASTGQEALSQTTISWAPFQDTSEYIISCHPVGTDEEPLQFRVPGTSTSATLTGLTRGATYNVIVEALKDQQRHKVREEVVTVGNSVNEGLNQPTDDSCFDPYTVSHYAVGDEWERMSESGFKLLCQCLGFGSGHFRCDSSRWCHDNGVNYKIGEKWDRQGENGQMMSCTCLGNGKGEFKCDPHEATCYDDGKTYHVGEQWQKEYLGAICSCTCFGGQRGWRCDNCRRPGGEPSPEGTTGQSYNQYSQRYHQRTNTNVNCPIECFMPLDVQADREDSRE

yeast enolase (Sigma) (from UniProt P00924 2-437) (enzyme)
inhibition of pneumococcal adherence to fibronectin: 98%
